# Reference: the RNAGym collection of RNA variant scans (doi:10.7554/elife.90254)
# B1: OR4K15 (parent)
# chain: GUUAACGGUCAUAGGCCAUGGAAACUAGGAGCACCAUUUCGCUGCCAGUGAAGAAAUGAACAAAGAAAAUCUGGGCCAGGCAGGCAUCAAAAGAAAUAGUCUUGCGCUCAACCAGAAAGUCUGUAAUCAUUUUAAGGGUA
# Variants of: B1
# Assay: self-cleavage, relative activity (ratio to wild type); higher = more cleavage; in vitro, sequencing; the parent is a self-cleaving ribozyme
row,Variant,self-cleavage
1,A95G C113U,0.15
2,A94G C105U,0.38
3,A91G A135G,1.06
4,A92G U108A,0.03
5,A92G U108C,0.01
6,A95G U103G,0.06
7,A95G U103C,1.25
8,A95U U130C,0.47
9,A90G U122A,0.84
10,A96G A110C,0.15
11,A96U C113U,0.04
12,A96C A117G,1.87
13,A92G A98G,0.74
14,A91G C105G,0.01
15,A91G C105A,0.03
16,A90G U127A,2.66
17,A92G U127C,0.9
18,A95G C101A,0.52
19,A95G C101U,1.28
20,A91G U122C,0.42
21,A94G A140U,0.72
22,U97C U102C,2.38
23,U97C U102A,0.47
24,A96U U97C,1.9

row,Variant,self-cleavage
1,A90G U124A,0.47
2,A96U A126G,1.58
3,A91G A117C,0.67
4,A91G A117G,1.48
5,A91U U127C,0.87
6,A92G C109U,0.59
7,A94C A116U,0.18
8,A95G U139A,2.01
9,A95G U139G,2.68
10,A95G U139C,2.07
11,A90U U132A,0.72
12,A91U U97A,2.19
13,A91U U97C,2.02
14,A92G A94G,1.49
15,A91G U132A,0.69
16,A91G U132C,0.88
17,A91G A125G,0.16
18,A92G G137A,1.34
19,A95U U122C,1.44
20,A92U A110U,1.74
21,A91C A98G,0.56
22,A91C U120C,0.94
23,A95G G104A,0.08
24,A96G A126U,1.49

row,Variant,self-cleavage
1,U97C U103C,0.58
2,A91G A111G,0.01
3,A96G U108G,0.03
4,A94U U120A,2.18
5,A95G U120A,2.78
6,A95G U120C,1.82
7,A96C U100A,0.96
8,A96C U100C,2.01
9,A91U A110U,0.82
10,A95U A116G,1
11,A94G U97C,1.12
12,A95G A110G,0.15
13,A95G A110C,0.39
14,A90U U131C,2.68
15,A92U U131C,1.36
16,A92G U102G,0.61
17,A92G U102A,0.61
18,A92G U102C,1.8
19,U97A U131C,1.62
20,A91G A126G,0.55
21,A94G,1.39
22,A94C,1.69
23,A94U,1.08
24,U97A A111G,0.03

row,Variant,self-cleavage
1,A90U A129G,1.51
2,A92G A114G,0.29
3,A92G A114U,0.02
4,A96C G104A,0.02
5,A92G A118G,1.26
6,A96G U124C,1.22
7,A94G A114G,0.36
8,A92C U132C,1.05
9,A94U U103C,0.46
10,A92C U103C,0.93
11,A96G A114G,0.44
12,U97C A111U,0.07
13,U97C A111G,0.02
14,U97C A117G,2.06
15,A95G A98U,1.77
16,A94G A95U,2.66
17,A92G A110G,0.17
18,A92G A125C,1.44
19,A91U U132C,1.62
20,A94U A126G,1.84
21,A90U U130C,1.3
22,A95C A96G,1.13
23,A92G U122A,1.96
24,A92G U122G,2.31

row,Variant,self-cleavage
1,A96G G136A,2.06
2,U97C A126U,0.44
3,A95G U127G,2.23
4,A90U U133C,1.61
5,A96G A117U,0.89
6,A91G G93A,1.82
7,A92C A96G,1.73
8,A91C A129G,1.15
9,A91C U131A,2.16
10,A96G U100C,2.42
11,A96G A118U,0.79
12,A90U A118G,1.24
13,A91G A118C,0.47
14,A91G A118U,0.53
15,G93C A98G,1.57
16,A91U A117G,1.88
17,A96C U132C,0.83
18,A92G C113A,0.01
19,A92C A111G,0.03
20,A92G U100C,1.84
21,A96C A118G,0.95
22,A91G U102A,0.67
23,A94G A126C,0.82
24,A94G A126G,1.3

row,Variant,self-cleavage
1,A94G A126U,1.08
2,A94G U120C,1.02
3,A94G U103C,0.69
4,A94G U103A,0.39
5,A94G U103G,0.03
6,A96G C121U,2.57
7,A94U A116G,0.48
8,A94U A116C,0.07
9,A94G A98G,0.27
10,A92G G119A,2.3
11,A94G A129G,1.29
12,A91G G99A,0.21
13,A94G U124C,0.21
14,A94U U127C,1.21
15,A91G U130C,0.54
16,A96G G138U,1.33
17,A94U A135G,2.33
18,A96G A116U,0.24
19,A94G U108A,0.01
20,A96C A126G,0.77
21,A91U A114G,0.62
22,A91U A114U,0.14
23,A91G A110G,0.11
24,A94U G119A,2.29

row,Variant,self-cleavage
1,A94G A135U,1.8
2,A96U G106A,0.01
3,A95G C105G,0.03
4,A95G C105U,0.43
5,A94U U122C,2.05
6,A91G U97A,1.05
7,A94G A118G,0.8
8,A95U A117G,2.29
9,A91G A116U,0.12
10,A92G A135U,2.03
11,A96G C109A,0.37
12,A96G U132C,1.21
13,A96G U132G,1.85
14,G93U A134G,1.18
15,A91U A94G,1.54
16,A94U A98G,1.06
17,U97C,0.71
18,U97A,1.75
19,A92G U132A,1.23
20,A92G U132G,1.04
21,A95G U97C,1.23
22,A95U A134G,1.48
23,A91U A111U,0.23
